Results: patent publication US20240270793A1, “COMPOSITIONS” (UNIVERSITY OF SOUTHAMPTON, priority 2020, published 2024)
Square brackets hold non-standard residues; d marks the D form. Phe(4-I) = N[C@@H](Cc1ccc(I)cc1)C(=O)O

Tests used:
[1] = cited from earlier work
[2] = molecular target: T1, human HIF-2α PAS-B (240-350), recombinant, His-tagged (human, UniProt Q99814 240-350, labelled with Monolith NT-647 dye for MST); assay: MST, NT-647-labelled recombinant HIF-2α PAS-B
T1 construct: range 240-350; Expressed in E. coli BL21(DE3)-Rosetta from pET28a; also called PAS-B domain of HIF-2α; not shown: His tag from pET28a vector (BamHI/SacI cloning)
T1 sequence (Q99814 240-350): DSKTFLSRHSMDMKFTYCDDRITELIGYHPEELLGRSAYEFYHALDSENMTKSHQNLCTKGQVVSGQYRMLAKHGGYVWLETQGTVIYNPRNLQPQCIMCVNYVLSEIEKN
Method: (§1) HIF-α proteins were labelled with Monolith NT-647 labelling dye (Nanotemper Technologies GmbH) according to the manufacturer's instructions. MST experiments were performed on a Monolith NT.115 system (Nanotemper Technologies GmbH), in assay buffer containing 50 nM labelled protein, 10% DMSO and 0.05% TWEEN-20. MST measurements were performed using 50% LED and 50% MST power.

[3] = molecular target: T2, human HIF-1α PAS-B (238-349), recombinant, His-tagged (human, UniProt Q16665 238-349, labelled with Monolith NT-647 dye for MST); assay: MST, NT-647-labelled recombinant HIF-1α PAS-B
T2 construct: range 238-349; Expressed in E. coli BL21(DE3)-Rosetta from pET28a; also called HIF-1α PAS-B domain; PAS-B domain of HIF-1α; not shown: His tag from pET28a vector (BamHI/SacI cloning)
T2 sequence (Q16665 238-349): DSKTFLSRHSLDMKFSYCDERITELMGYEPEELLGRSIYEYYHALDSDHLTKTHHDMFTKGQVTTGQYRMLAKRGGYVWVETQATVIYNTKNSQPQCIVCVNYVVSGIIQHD
Method: as §1

[4] = molecular target: T1, human HIF-2α PAS-B (240-350), …; assay: MST, HIF-2α PAS-B against HIF-1α PAS-B
Method: as §1

[5] = molecular target: HIF (hypoxia inducible factor) in the YFP-reporter T-REx-293 (HEK) cell line; assay: cell-based or functional assay
[6] = molecular target: T2, human HIF-1α PAS-B (238-349), …; assay: MST, HIF-1α PAS-B; bar chart of Kd (µM) for residues at position 6 of CRLIIF
[7] = molecular target: T2, human HIF-1α PAS-B (238-349), …; assay: MST, peptide titrated against labelled HIF-1α PAS-B [middle panel]
[8] = molecular target: T1, human HIF-2α PAS-B (240-350), …; assay: MST, peptide titrated against labelled HIF-2α PAS-B [middle panel]
[9] = molecular target: T2, human HIF-1α PAS-B (238-349), …; assay: MST, NT-647-labelled recombinant 1α PAS-B
Method: as §1

[10] = molecular target: T2, human HIF-1α PAS-B (238-349), …; assay: MST, ratio of Kd on HIF-2α PAS-B to Kd on HIF-1α PAS-B
[11] = molecular target: T1, human HIF-2α PAS-B (240-350), …; assay: MST, peptide titrated against labelled HIF-2α PAS-B [bottom panel]
[12] = molecular target: T2, human HIF-1α PAS-B (238-349), …; assay: MST, peptide titrated against labelled HIF-1α PAS-B [bottom panel]
[13] = molecular target: T2, human HIF-1α PAS-B (238-349), …; assay: MST, NT-647-labelled recombinant PAS-B domain
Method: as §1

[14] = molecular target: T1, human HIF-2α PAS-B (240-350), …; assay: MST, NT-647-labelled recombinant PAS-B domain
Method: as §1

[15] = molecular target: T2, human HIF-1α PAS-B (238-349), …; assay: MST, peptide titrated against labelled HIF-1α PAS-B [top panel]
[16] = molecular target: T1, human HIF-2α PAS-B (240-350), …; assay: MST, peptide titrated against labelled HIF-2α PAS-B [top panel]

In the case of “CLLFVY: previously reported selective inhibitor of HIF-1 dimerization, cyclic peptide Cys leu leu phe val tyr”, the “solubility of previously reported HIF-1 inhibitor” value [1] is listed as “comparatively insoluble”.

B1: cyclo-cys arg leu ile ile (4-I)phe (peptide)
peptide: cyclo(CRLII[Phe(4-I)])
SMILES: CC[C@H](C)[C@@H]1NC(=O)[C@H](CC(C)C)NC(=O)[C@H](CCCNC(=N)N)NC(=O)[C@H](CS)NC(=O)[C@H](Cc2ccc(I)cc2)NC(=O)[C@H]([C@@H](C)CC)NC1=O
notes: also called CRLIIF(4I); Cyclo-CRLIIF(4-I)
In the case of B1, the Kd [2] is reported as 1.9 µM, the Kd [3] is reported as 0.85 µM and the “fold improvement in affinity relative to the parent compound CRLIIF” value [3] is reported as 4.5 fold. The “fold loss in Kd compared to the 1α isoform” value [4] was 2.2 fold and the IC50 in the YFP reporter assay (HRE-driven YFP in T-REx-293 cells, hypoxia) [5] was 35 µM.

B2: cyclo-cys arg leu ile ile tyr (peptide)
peptide: CRLIIY
modifications: head-to-tail cyclic (cyclo-)
notes: also called Cyclo-CRLIIY; cyclic peptide #29
B2: binds [6].

B3: cyclo-cys arg leu leu ile phe (peptide)
peptide: CRLLIF
modifications: head-to-tail cyclic (cyclo-)
notes: also called CRLLIF; cyclic peptide #2
Work on B3 yielded a Kd [7] of 14.5 µM, a Kd [8] of 10.2 µM and a Kd [9] of 14 µM.

B4: cyclo-cys arg val ile ile phe (peptide)
peptide: CRVIIF
modifications: head-to-tail cyclic (cyclo-)
notes: also called CRVIIF; cyclic peptide #3
For B4, the “fold selectivity for 1α over 2α” value [10] was about 2 fold, the Kd [11] was 123 µM and the Kd [12] was 65.5 µM. The Kd [13] was 61 µM and the Kd [14] was 118 µM.

B5: cyclo-cys lys leu ile ile phe (peptide)
peptide: CKLIIF
modifications: head-to-tail cyclic (cyclo-)
notes: also called CKLIIF; cyclic peptide #1
Molecule B5 has a Kd [15] of 2.6 µM, a Kd [13] of about 2 µM and a Kd [14] of about 2 µM. For the same molecule, the Kd [16] was 2.2 µM and the Kd [9] was 2.5 µM.
